This series is described as follows: self-splicing fitness, log relative to wild type (ln ratio); higher = more splicing; Tetrahymena group I intron in knt gene, E. coli kanamycin selection, DiMSum; sequences stand for … in CUCUCU…GGAGGGAAAAGUUAUCAGGCAUGCACCUGGUAGCUAGUCUUUAAACCAAUAGAUUGCAUCGGUUUAAAAGGCAAGACCGUCAAAUUGCGGGAAAGGGGUCAACAGCCGUUCAGUACCAAGUCUCAGGGGAAACUUUGAGAUGGCCUUGCAAAGGGUAUGGUAAUAAGCUGACGGACAUGGUCCUAACCACGCAGCCAAGUCCUAAGUCAACAGAUCUUCUGUUGAUAUGGAUGCAGUUCACAGACUAAAUGUCGGUCGGGGAAGAUGUAUUCUUCUCAUAAGAUAUAGUCGGACCUCUCCUUAAUGGGAGCUAGCGGAUGAAGUGAUGCAACACUGGAGCCGCUGGGAACUAAUUUGUAUGCGAAAGUAUAUUGAUUAGUUUUGGAGUACUCGUGGUCG
A digest of the protocol: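 Six replicate transformations of E. coli BL21(DE3) with a pET-22b(+) library were grown overnight at 37°C or 30°C. The library randomised all eight P1ex-region intron nucleotides, the intron lying in the knt kanamycin-resistance gene, and plates were LB agar with or without 25 μg/mL kanamycin plus 100 μg/mL carbenicillin, 50 μM IPTG and 0.2% rhamnose. Pooled colonies were amplicon-sequenced on an Illumina HiSeq 2500, and fitness is the DiMSum error-weighted combination of wild-type-normalised replicate fold changes, kanamycin versus none.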

± gives the uncertainty stated by the source.

From the supplement of paper PMC7877785 come the findings set out here.

As to CAGGAGCAAUAUUACGACAA, the “self-splicing fitness (ln)” value (37 °C) was -1.73 ± 0.41. As for UCGUAGCAAUAUUACGACAA, the “self-splicing fitness (ln)” value is -2.42 ± 0.29 (30 °C) and -1.5 ± 0.24 (37 °C).

AGUGAGCAAUAUUACGAACC: the “self-splicing fitness (ln)” value was -0.739 ± 0.16 (30 °C) and -0.869 ± 0.24 (37 °C).

In the case of GUAGAGCAAUAUUACGCGUU, the “self-splicing fitness (ln)” value by setting is: (30 °C) -0.368 ± 0.065; (37 °C) -0.909 ± 0.11. CAUAAGCAAUAUUACGCUGU: the “self-splicing fitness (ln)” value runs as follows: (30 °C) -3.79 ± 0.27; (37 °C) -1.05 ± 0.15. On the same counts, the results for AACGAGCAAUAUUACGGUCA are -2.05 ± 0.21 and -1.12 ± 0.2. For the sequence UUGAAGCAAUAUUACGUUAU, the “self-splicing fitness (ln)” value was -2.08 ± 0.099 (30 °C) and -0.402 ± 0.1 (37 °C).

Turning to CGAUAGCAAUAUUACGUGUC, the “self-splicing fitness (ln)” value runs as follows: (30 °C) -3.67 ± 0.2; (37 °C) -2.64 ± 0.16. Consider UUAGAGCAAUAUUACGAAUU, for which the “self-splicing fitness (ln)” value (30 °C) was -1.77 ± 0.28.

Turning to ACUAAGCAAUAUUACGCACG, the “self-splicing fitness (ln)” value is -1.68 ± 0.1 (30 °C) and -0.457 ± 0.13 (37 °C). On the same counts, the results for CCUAAGCAAUAUUACGGAAG are -2.12 ± 0.11 and -0.751 ± 0.1.

Consider ACGCAGCAAUAUUACGGGGU, for which the “self-splicing fitness (ln)” value (30 °C) was -4.68 ± 0.22 and the “self-splicing fitness (ln)” value (37 °C) is -2.34 ± 0.12. For GUCUAGCAAUAUUACGGAAU, the “self-splicing fitness (ln)” value was -0.979 ± 0.11 (30 °C) and 0.135 ± 0.11 (37 °C). On the same counts, the results for GGCAAGCAAUAUUACGGCAA are 0.2 ± 0.086 and 0.388 ± 0.12. The corresponding values for AGUGAGCAAUAUUACGGAGC are -1.89 ± 0.18 and -3.36 ± 0.33. In the case of AUAUAGCAAUAUUACGACAA, the “self-splicing fitness (ln)” value is -0.546 ± 0.21 (30 °C) and 0.567 ± 0.18 (37 °C).

For the sequence ACAAAGCAAUAUUACGCGUC, the “self-splicing fitness (ln)” value is, setting by setting: (30 °C) -4.08 ± 0.31; (37 °C) -2.09 ± 0.22. The corresponding values for ACCGAGCAAUAUUACGUGGU are -3.77 ± 0.17 and -2.05 ± 0.18.

Regarding CUUCAGCAAUAUUACGGAGU, the “self-splicing fitness (ln)” value is -3.27 ± 0.15 (30 °C) and -3.23 ± 0.28 (37 °C). The corresponding values for UUACAGCAAUAUUACGAAGU are -3.35 ± 0.29 and -2.7 ± 0.36. As for GAAUAGCAAUAUUACGUUAG, the “self-splicing fitness (ln)” value runs as follows: (30 °C) -3.39 ± 0.2; (37 °C) -1.94 ± 0.18. On to AUGUAGCAAUAUUACGAUAC, for which the “self-splicing fitness (ln)” value is -3.33 ± 0.28 (30 °C) and -1.82 ± 0.21 (37 °C). As for UGGUAGCAAUAUUACGGCAU, the “self-splicing fitness (ln)” value (30 °C) was -1.5 ± 0.2 and the “self-splicing fitness (ln)” value (37 °C) was -0.405 ± 0.21.

As for GUUAAGCAAUAUUACGGAGC, the “self-splicing fitness (ln)” value (30 °C) was -3.58 ± 0.33 and the “self-splicing fitness (ln)” value (37 °C) was -2.55 ± 0.27. Turning to UCGCAGCAAUAUUACGAAAG, the “self-splicing fitness (ln)” value (37 °C) was -2.04 ± 0.36. For the sequence GGGCAGCAAUAUUACGAUGA, the “self-splicing fitness (ln)” value is -1.36 ± 0.12 (30 °C) and -0.649 ± 0.11 (37 °C). With AACAAGCAAUAUUACGCGGC, the “self-splicing fitness (ln)” value runs as follows: (30 °C) -3.28 ± 0.26; (37 °C) -1.71 ± 0.19. On to GGAGAGCAAUAUUACGAUUC, for which the “self-splicing fitness (ln)” value runs as follows: (30 °C) -1.58 ± 0.29; (37 °C) -0.911 ± 0.26. As to UAACAGCAAUAUUACGUCCA, the “self-splicing fitness (ln)” value was -0.357 ± 0.091 (30 °C) and -0.0151 ± 0.12 (37 °C). For UCGGAGCAAUAUUACGAGUU, the “self-splicing fitness (ln)” value (30 °C) is -2.79 ± 0.33. On to UCACAGCAAUAUUACGCCGC, for which the “self-splicing fitness (ln)” value was -3.57 ± 0.22 (30 °C) and -2.69 ± 0.19 (37 °C). AUGAAGCAAUAUUACGGGCU: the “self-splicing fitness (ln)” value was -1.52 ± 0.11 (30 °C) and -0.445 ± 0.13 (37 °C). Turning to AAGAAGCAAUAUUACGAAAC, the “self-splicing fitness (ln)” value (30 °C) is -1.82 ± 0.17 and the “self-splicing fitness (ln)” value (37 °C) is -0.859 ± 0.15. AUAGAGCAAUAUUACGUUGG: the “self-splicing fitness (ln)” value is -4.04 ± 0.25 (30 °C) and -2.51 ± 0.19 (37 °C). With UUGAAGCAAUAUUACGAGAA, the “self-splicing fitness (ln)” value is, setting by setting: (30 °C) -1.9 ± 0.17; (37 °C) -1.7 ± 0.18. Turning to UCGUAGCAAUAUUACGCAGG, the “self-splicing fitness (ln)” value was -2.49 ± 0.18 (30 °C) and -2.17 ± 0.21 (37 °C). For the sequence AAUUAGCAAUAUUACGUAAC, the “self-splicing fitness (ln)” value was -1.98 ± 0.16 (30 °C) and -1.55 ± 0.29 (37 °C). With ACGCAGCAAUAUUACGUUCA, the “self-splicing fitness (ln)” value was -1.96 ± 0.11 (30 °C) and -0.844 ± 0.094 (37 °C).

With UUAGAGCAAUAUUACGUUAU, the “self-splicing fitness (ln)” value was -3.14 ± 0.16 (30 °C) and -2.14 ± 0.19 (37 °C).
